# Key:
# [1] = target: CD27-mFc (Kangdai) (human) (UniProt P26842); assay: ELISA on coated CD27-mFc (1 ug/mL), AP anti-human Fc detection, absorption at 405/490 nm (Example 15.2)
# [2] = target: CD27-mFc (Kangdai) (human) (UniProt P26842); assay: ELISA on coated CD27-mFc
# [3] = target: CD27-mFc (Kangdai) (human) (UniProt P26842); assay: competition ELISA: coated CD70 (1 ug/mL), CD27-mFc fixed at 4.3 ug/mL plus antibody dilution, HRP anti-mouse Fc detection; blocked ligand CD70 (Example 3.5)
# [4] = target: human CD27 (transmembrane protein) on the cell membrane (human) (UniProt P26842); assay: flow cytometry on CHO cells expressing human CD27
# [5] = target: CD27-mFc (Kangdai) (human) (UniProt P26842); assay: competition ELISA: CD70 coated, CD27-mFc plus antibody dilutions; competitor CD70
# [6] = target: antigen CD27 (soluble, as used in the BLI and SPR experiments) (UniProt P26842); assay: BLI, antibody captured on AHC probe, CD27 in solution
# [7] = target: human CD27 (transmembrane protein) on the cell membrane (human) (UniProt P26842); assay: flow cytometry on human PBMC, antibody 5 ug/mL, CD3 FITC-A against APC-A (Example 3.3); other quadrants printed: Q2-UL 16.97 %, Q2-LL 27.93 %, Q2-LR 8.25 %
# [8] = target: human CD27 (transmembrane protein) on the cell membrane (human) (UniProt P26842); assay: flow cytometry on human PBMC, antibody 5 ug/mL, CD19 PE-A against APC-A (Example 3.3); other quadrants printed: Q3-UL 15.04 %, Q3-LL 29.25 %, Q3-LR 51.11 %
# CD27-mFc (Kangdai) (human), sequence (P26842 21-192 limits assumed): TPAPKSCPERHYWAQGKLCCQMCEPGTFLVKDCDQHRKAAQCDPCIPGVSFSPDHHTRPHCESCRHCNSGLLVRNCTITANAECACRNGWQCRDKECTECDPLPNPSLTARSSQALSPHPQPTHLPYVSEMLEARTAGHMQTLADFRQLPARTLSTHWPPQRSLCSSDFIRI
# antigen CD27 (soluble, as used in the BLI and SPR experiments), sequence (P26842 21-192 limits assumed): as above
# human CD27 (transmembrane protein) on the cell membrane (human), sequence (P26842 20-260): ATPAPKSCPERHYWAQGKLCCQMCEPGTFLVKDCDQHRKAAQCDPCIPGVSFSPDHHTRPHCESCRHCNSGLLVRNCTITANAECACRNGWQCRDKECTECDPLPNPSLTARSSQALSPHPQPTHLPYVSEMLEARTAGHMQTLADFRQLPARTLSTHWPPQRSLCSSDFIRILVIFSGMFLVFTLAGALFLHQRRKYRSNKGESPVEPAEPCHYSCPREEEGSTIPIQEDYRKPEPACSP
substance,measurement,setting,value
CD27 monoclonal antibody Varlilumab (1F5),EC50,[1],0.032 µg/mL
same,EC50,[2],0.0381 µg/mL
same,IC50 (read off the curve),[3],1 µg/mL
same,EC50,[4],2.87 µg/mL
same,IC50,[5],1.31 µg/mL
same,Kd,[6],0.696 nM
same,koff,[6],8.75e-05 s⁻¹
same,kon,[6],126000 M⁻¹ s⁻¹
same,"Q2-UR, percent of gated cells that are CD3 FITC+ and APC+ (antibody-stained)",[7],46.9%
same,"Q3-UR, percent of gated cells that are CD19 PE+ and APC+ (antibody-stained)",[8],4.6%
